How the values were obtained:
HeLa Kyoto [1] = assay: solubility in G1/S (NP-40 vs SDS abundance) (log2 ratio); higher = more soluble; conditions: cell cycle stage: G1/S
HeLa Kyoto [2] = assay: melting temperature (median over replicates), in situ; higher = more thermally stable
HeLa Kyoto [3] = assay: solubility change mitosis vs G1/S (difference of NP-40 vs SDS log2 ratios) (log2 ratio difference); higher = more soluble in mitosis
HeLa Kyoto [4] = assay: thermal stability score vs G1/S (z-score of summed log2 fold changes over temperatures); higher = more thermally stable than in G1/S
[5] = cell cycle stage: early G1 (4.5 h after nocodazole release)
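For melting temperature (median over replicates), in situ in this document: HeLa Kyoto cells synchronized by double thymidine or nocodazole block, proteins quantified by TMT10plex mass spectrometry, three independent biological replicates.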
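For solubility change mitosis vs G1/S (difference of NP-40 vs SDS log2 ratios) in this document: synchronized HeLa Kyoto cells (double thymidine block for G1/S, nocodazole release for mitosis), protein amounts in NP-40 versus SDS lysates quantified by mass spectrometry, three biological replicates.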
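For solubility in G1/S (NP-40 vs SDS abundance) in this document: HeLa Kyoto cells arrested at G1/S by double thymidine block, proteins quantified by TMT10plex mass spectrometry in mild NP-40 versus SDS extracts, three biological replicates.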
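For thermal stability score vs G1/S (z-score of summed log2 fold changes over temperatures) in this document: synchronized HeLa Kyoto cells, proteins quantified by TMT10plex mass spectrometry, three biological replicates, mitosis taken 0.5 h after nocodazole release, G1/S directly after double thymidine block.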

Sequence of COPE (chain, as listed by the source): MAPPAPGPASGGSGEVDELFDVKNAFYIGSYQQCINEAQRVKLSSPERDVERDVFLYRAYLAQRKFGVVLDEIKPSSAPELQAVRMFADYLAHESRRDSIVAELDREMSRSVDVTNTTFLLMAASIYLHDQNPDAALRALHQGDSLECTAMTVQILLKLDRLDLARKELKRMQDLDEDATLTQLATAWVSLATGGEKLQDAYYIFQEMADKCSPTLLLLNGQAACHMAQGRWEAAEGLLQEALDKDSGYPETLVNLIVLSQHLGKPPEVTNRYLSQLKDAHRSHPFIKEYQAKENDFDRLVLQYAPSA

| Substance | solubility in G1/S (log2) (HeLa Kyoto [1]) | melting temperature (HeLa Kyoto [2]; cell cycle stage: G1/S) | melting temperature (HeLa Kyoto [2]; cell cycle stage: mitosis) | solubility change mitosis (log2) (HeLa Kyoto [3]) | thermal stability score (HeLa Kyoto [4]; [5]) | thermal stability score (HeLa Kyoto [4]; cell cycle stage: mitosis) |
| --- | --- | --- | --- | --- | --- | --- |
| MADPWQECMDYAVTLARQAGEVVCEAIKNEMNVMLKSSPVDLVTATDQKVEKMLISSIKEKYPSHSFIGEESVAAGEKSILTDNPTWIIDPIDGTTNFVHRFPFVAVSIGFAVNKKIEFGVVYSCVEGKMYTARKGKGAFCNGQKLQVSQQEDITKSLLVTELGSSRTPETVRMVLSNMEKLFCIPVHGIRSVGTAAVNMCLVATGGADAYYEMGIHCWDVAGAGIIVTEAGGVLMDVTGGPFDLMSRRVIAANNRILAERIAKEIQVIPLQRDDED [IMPA1] | 0.0966 | 59.9 °C | 61.1 °C | -0.19 | -1.12 | -2.39 |
| MLGIWTLLPLVLTSVARLSSKSVNAQVTDINSKGLELRKTVTTVETQNLEGLHHDGQFCHKPCPPGERKARDCTVNGDEPDCVPCQEGKEYTDKAHFSSKCRRCRLCDEGHGLEVEINCTRTQNTKCRCKPNFFCNSTVCEHCDPCTKCEHGIIKECTLTSNTKCKEEGSRSNLGWLCLLLLPIPLIVWVKRKEVQKTCRKHRKENQGSHESPTLNPETVAINLSDVDLSKYITTIAGVMTLSQVKGFVRKNGVNEAKIDEIKNDNVQDTAEQKVQLLRNWHQLHGKKEAYDTLIKDLKKANLCTLAEKIQTIILKDITSDSENSNFRNEIQSLV [FAS] | 0.525 | 54.1 °C | 54.4 °C | 0.0304 | -0.244 | -1.13 |
| COPE | 0.212 | 50.3 °C | 50.9 °C | 0.0106 | -0.526 | -0.936 |
| MAASCLVLLALCLLLPLLLLGGWKRWRRGRAARHVVAVVLGDVGRSPRMQYHALSLAMHGFSVTLLGFCNSKPHDELLQNNRIQIVGLTELQSLAVGPRVFQYGVKVVLQAMYLLWKLMWREPGAYIFLQNPPGLPSIAVCWFVGCLCGSKLVIDWHNYGYSIMGLVHGPNHPLVLLAKWYEKFFGRLSHLNLCVTNAMREDLADNWHIRAVTVYDKPASFFKETPLDLQHRLFMKLGSMHSPFRARSEPEDPVTERSAFTERDAGSGLVTRLRERPALLVSSTSWTEDEDFSILLAALEKFEQLTLDGHNLPSLVCVITGKGPLREYYSRLIHQKHFQHIQVCTPWLEAEDYPLLLGSADLGVCLHTSSSGLDLPMKVVDMFGCCLPVCAVNFKCLHELVKHEENGLVFEDSEELAAQLQMLFSNFPDPAGKLNQFRKNLRESQQLRWDESWVQTVLPLVMDT [ALG1] | -0.369 | 52.4 °C | 52.6 °C | -0.125 | 0.156 | -0.276 |
| MCASVKYNIRGPALIPRMKTKHRIYYITLFSIVLLGLIATGMFQFWPHSIESSNDWNVEKRSIRDVPVVRLPADSPIPERGDLSCRMHTCFDVYRCGFNPKNKIKVYIYALKKYVDDFGVSVSNTISREYNELLMAISDSDYYTDDINRACLFVPSIDVLNQNTLRIKETAQAMAQLSRWDRGTNHLLFNMLPGGPPDYNTALDVPRDRALLAGGGFSTWTYRQGYDVSIPVYSPLSAEVDLPEKGPGPRQYFLLSSQVGLHPEYREDLEALQVKHGESVLVLDKCTNLSEGVLSVRKRCHKHQVFDYPQVLQEATFCVVLRGARLGQAVLSDVLQAGCVPVVIADSYILPFSEVLDWKRASVVVPEEKMSDVYSILQSIPQRQIEEMQRQARWFWEAYFQSIKAIALATLQIINDRIYPYAAISYEEWNDPPAVKWGSVSNPLFLPLIPPQSQGFTAIVLTYDRVESLFRVITEVSKVPSLSKLLVVWNNQNKNPPEDSLWPKIRVPLKVVRTAENKLSNRFFPYDEIETEAVLAIDDDIIMLTSDELQFGYEVWREFPDRLVGYPGRLHLWDHEMNKWKYESEWTNEVSMVLTGAAFYHKYFNYLYTYKMPGDIKNWVDAHMNCEDIAMNFLVANVTGKAVIKVTPRKKFKCPECTAIDGLSLDQTHMVERSECINKFASVFGTMPLKVVEHRADPVLYKDDFPEKLKSFPNIGSL [EXT2] | -0.537 | 54 °C | 53.4 °C | 0.0664 | -1.61 | -1.33 |
| MATASPAADGGRGRPWEGGLVSWPPAPPLTLPWTWMGPSWGQHPGHWGFPALTEPSASPAAGLGIFEVRRVLDASGCSMLAPLQTGAARFSSYLLSRARKVLGSHLFSPCGVPEFCSISTRKLAAHGFGASMAAMVSFPPQRYHYFLVLDFEATCDKPQIHPQEIIEFPILKLNGRTMEIESTFHMYVQPVVHPQLTPFCTELTGIIQAMVDGQPSLQQVLERVDEWMAKEGLLDPNVKSIFVTCGDWDLKVMLPGQCQYLGLPVADYFKQWINLKKAYSFAMGCWPKNGLLDMNKGLSLQHIGRPHSGIDDCKNIANIMKTLAYRGFIFKQTSKPF [ERI3] | 0.0291 | – | 54.7 °C | -0.0837 | 0.384 | -0.0416 |
| MSLVAEAFVSQIAAAEPWPENATLYQQLKGEQILLSDNAASLAVQAFLQMCNLPIKVVCRANAEYMSPSGKVPFIHVGNQVVSELGPIVQFVKAKGHSLSDGLEEVQKAEMKAYMELVNNMLLTAELYLQWCDEATVGEITHARYGSPYPWPLNHILAYQKQWEVKRKMKAIGWGKKTLDQVLEDVDQCCQALSQRLGTQPYFFNKQPTELDALVFGHLYTILTTQLTNDELSEKVKNYSNLLAFCRRIEQHYFEDRGKGRLS [MTX2] | 0.186 | 51.4 °C | 52.2 °C | 0.0491 | -0.339 | -0.187 |
| MDLYSTPAAALDRFVARRLQPRKEFVEKARRALGALAAALRERGGRLGAAAPRVLKTVKGGSSGRGTALKGGCDSELVIFLDCFKSYVDQRARRAEILSEMRASLESWWQNPVPGLRLTFPEQSVPGALQFRLTSVDLEDWMDVSLVPAFNVLGQAGSGVKPKPQVYSTLLNSGCQGGEHAACFTELRRNFVNIRPAKLKNLILLVKHWYHQVCLQGLWKETLPPVYALELLTIFAWEQGCKKDAFSLAEGLRTVLGLIQQHQHLCVFWTVNYGFEDPAVGQFLQRQLKRPRPVILDPADPTWDLGNGAAWHWDLLAQEAASCYDHPCFLRGMGDPVQSWKGPGLPRAGCSGLGHPIQLDPNQKTPENSKSLNAVYPRAGSKPPSCPAPGPTGAASIVPSVPGMALDLSQIPTKELDRFIQDHLKPSPQFQEQVKKAIDIILRCLHENCVHKASRVSKGGSFGRGTDLRDGCDVELIIFLNCFTDYKDQGPRRAEILDEMRAQLESWWQDQVPSLSLQFPEQNVPEALQFQLVSTALKSWTDVSLLPAFDAVGQLSSGTKPNPQVYSRLLTSGCQEGEHKACFAELRRNFMNIRPVKLKNLILLVKHWYRQVAAQNKGKGPAPASLPPAYALELLTIFAWEQGCRQDCFNMAQGFRTVLGLVQQHQQLCVYWTVNYSTEDPAMRMHLLGQLRKPRPLVLDPADPTWNVGHGSWELLAQEAAALGMQACFLSRDGTSVQPWDVMPALLYQTPAGDLDKFISEFLQPNRQFLAQVNKAVDTICSFLKENCFRNSPIKVIKVVKGGSSAKGTALRGRSDADLVVFLSCFSQFTEQGNKRAEIISEIRAQLEACQQERQFEVKFEVSKWENPRVLSFSLTSQTMLDQSVDFDVLPAFDALGQLVSGSRPSSQVYVDLIHSYSNAGEYSTCFTELQRDFIISRPTKLKSLIRLVKHWYQQCTKISKGRGSLPPQHGLELLTVYAWEQGGKDSQFNMAEGFRTVLELVTQYRQLCIYWTINYNAKDKTVGDFLKQQLQKPRPIILDPADPTGNLGHNARWDLLAKEAAACTSALCCMGRNGIPIQPWPVKAAV [OAS3] | -0.177 | 50.3 °C | 49.8 °C | -0.109 | 1.51 | 1.6 |
| MAVNVYSTSVTSDNLSRHDMLAWINESLQLNLTKIEQLCSGAAYCQFMDMLFPGSIALKKVKFQAKLEHEYIQNFKILQAGFKRMGVDKIIPVDKLVKGKFQDNFEFVQWFKKFFDANYDGKDYDPVAARQGQETAVAPSLVAPALNKPKKPLTSSSAAPQRPISTQRTAAAPKAGPGVVRKNPGVGNGDDEAAELMQQVNVLKLTVEDLEKERDFYFGKLRNIELICQENEGENDPVLQRIVDILYATDEGFVIPDEGGPQEEQEEY [MAPRE1] | 0.394 | 50.8 °C | 51.2 °C | 0.204 | -0.163 | -0.675 |
| MWLPLVLLLAVLLLAVLCKVYLGLFSGSSPNPFSEDVKRPPAPLVTDKEARKKVLKQAFSANQVPEKLDVVVIGSGFGGLAAAAILAKAGKRVLVLEQHTKAGGCCHTFGKNGLEFDTGIHYIGRMEEGSIGRFILDQITEGQLDWAPLSSPFDIMVLEGPNGRKEYPMYSGEKAYIQGLKEKFPQEEAIIDKYIKLVKVVSSGAPHAILLKFLPLPVVQLLDRCGLLTRFSPFLQASTQSLAEVLQQLGASSELQAVLSYIFPTYGVTPNHSAFSMHALLVNHYMKGGFYPRGGSSEIAFHTIPVIQRAGGAVLTKATVQSVLLDSAGKACGVSVKKGHELVNIYCPIVVSNAGLFNTYEHLLPGNARCLPGVKQQLGTVRPGLGMTSVFICLRGTKEDLHLPSTNYYVYYDTDMDQAMERYVSMPREEAAEHIPLLFFAFPSAKDPTWEDRFPGRSTMIMLIPTAYEWFEEWQAELKGKRGSDYETFKNSFVEASMSVVLKLFPQLEGKVESVTAGSPLTNQFYLAAPRGACYGADHDLGRLHPCVMASLRAQSPIPNLYLTGQDIFTCGLVGALQGALLCSSAILKRNLYSDLKNLDSRIRAQKKKN [RETSAT] | 0.0503 | 52.1 °C | 52.2 °C | -0.0973 | 2.89 | 3.75 |
| MLPHVVLTFRRLGCALASCRLAPARHRGSGLLHTAPVARSDRSAPVFTRALAFGDRIALVDQHGRHTYRELYSRSLRLSQEICRLCGCVGGDLREERVSFLCANDASYVVAQWASWMSGGVAVPLYRKHPAAQLEYVICDSQSSVVLASQEYLELLSPVVRKLGVPLLPLTPAIYTGAVEEPAEVPVPEQGWRNKGAMIIYTSGTTGRPKGVLSTHQNIRAVVTGLVHKWAWTKDDVILHVLPLHHVHGVVNALLCPLWVGATCVMMPEFSPQQVWEKFLSSETPRINVFMAVPTIYTKLMEYYDRHFTQPHAQDFLRAVCEEKIRLMVSGSAALPLPVLEKWKNITGHTLLERYGMTEIGMALSGPLTTAVRLPGSVGTPLPGVQVRIVSENPQREACSYTIHAEGDERGTKVTPGFEEKEGELLVRGPSVFREYWNKPEETKSAFTLDGWFKTGDTVVFKDGQYWIRGRTSVDIIKTGGYKVSALEVEWHLLAHPSITDVAVIGVPDMTWGQRVTAVVTLREGHSLSHRELKEWARNVLAPYAVPSELVLVEEIPRNQMGKIDKKALIRHFHPS [ACSF3] | -0.107 | 49.3 °C | 49.7 °C | -0.0957 | -0.21 | 1.59 |
| MEGLTLSDAEQKYYSDLFSYCDIESTKKVVVNGRVLELFRAAQLPNDVVLQIMELCGATRLGYFGRSQFYIALKLVAVAQSGFPLRVESINTVKDLPLPRFVASKNEQESRHAASYSSDSENQGSYSGVIPPPPGRGQVKKGSVSHDTVQPRTSADAQEPASPVVSPQQSPPTSPHTWRKHSRHPSGGNSERPLAGPGPFWSPFGEAQSGSSAGDAVWSGHSPPPPQENWVSFADTPPTSTLLTMHPASVQDQTTVRTVASATTAIEIRRQSSSYDDPWKITDEQRQYYVNQFKTIQPDLNGFIPGSAAKEFFTKSKLPILELSHIWELSDFDKDGALTLDEFCAAFHLVVARKNGYDLPEKLPESLMPKLIDLEDSADVGDQPGEVGYSGSPAEAPPSKSPSMPSLNQTWPELNQSSEQWETFSERSSSSQTLTQFDSNIAPADPDTAIVHPVPIRMTPSKIHMQEMELKRTGSDHTNPTSPLLVKPSDLLEENKINSSVKFASGNTVADGYSSSDSFTSDPEQIGSNVTRQRSHSGTSPDNTAPPPPPPRPQPSHSRSSSLDMNRTFTVTTGQQQAGVVAHPPAVPPRPQPSQAPGPAVHRPVDADGLITHTSTSPQQIPEQPNFADFSQFEVFAASNVNDEQDDEAEKHPEVLPAEKASDPASSLRVAKTDSKTEEKTAASAPANVSKGTTPLAPPPKPVRRRLKSEDELRPEVDEHTQKTGVLAAVLASQPSIPRSVGKDKKAIQASIRRNKETNTVLARLNSELQQQLKDVLEERISLEVQLEQLRPFSHL [REPS1] | 0.0849 | 48.8 °C | 49.8 °C | -0.0971 | 0.407 | 0.261 |

Reference: the supplement of paper PMC5998384
